Experimental data: the supplement of paper PMC9170038

System: MS2 coat protein
Experiment: apparent KD of MS2 coat protein; designed switch direction (-1 OFF switch, 1 ON switch): 1; higher = weaker reporter binding
Procedure, shortened: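 Designed RNA switches with common flanks were made on Illumina chips by stalled E. coli RNA polymerase. Titration with SNAP-549-labelled MS2 coat protein doubled from 0.7 or 1.5 nM up to 3 µM. Apparent KD is each design's median over clusters after curve-fitting normalised fluorescence.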

[1] = Eterna round: R95, input ligand: FMN 200 uM
[2] = Eterna round: R95, input ligand: microRNA oligo, concentration not stated
[3] = Eterna round: R95, input ligand: none
[4] = input ligand: microRNA oligo, concentration not stated

Sequence	apparent KD of MS2 coat protein [1]	apparent KD of MS2 coat protein [2]	apparent KD of MS2 coat protein [3]	apparent KD of MS2 coat protein (input ligand: FMN 200 uM)	apparent KD of MS2 coat protein [4]	apparent KD of MS2 coat protein (input ligand: none)
UACAAUCUAUCUGAGGAUAUCAUGAUGAUAACAUGAGGAUCACCCAUGUGCAGGAAAACUGCAUAUGAGAAGGCAGAUAGAUUGU [salish99_ss2_r3_074] (puzzle: Same State 2)	0.102 µM	0.195 µM	0.0924 µM			
UACAAUCUAUCUGAGGAUAUCAUGAUUUAAACAUGAGGAUCACCCAUGUGCAGGAAAACUGCAUAUGAGAAGGCAGAUAGAUUGU [salish99_ss2_r3_063] (puzzle: Same State 2)	0.135 µM	0.297 µM	0.241 µM			
UACUAUCUAUCUCAGGAUAUCAUGUCAAAGACAUGAGGAUCACCCAUGUACCAGGAAACUGGUUAUGAGAAGGGAGAUAGAUAGU [Mat - Same State 2 - Mod - D40] (puzzle: Same State 2)	0.16 µM	0.0532 µM	0.249 µM			
UAGAAACAUGAGGAUCACCCAUGUGGGUUAAACACAGGAUAUCAUGCCACACGAUAGGUAUGAGAAGGGUGACCGU [Sodion] (puzzle: Same State 1)	0.234 µM	0.0795 µM	0.0533 µM			
UAGAGAGGAAGCGAGGAUAUCGUGGGAGGAACAUGAGGAUCACCCAUGUGUGAUGUUGAGAGGGACGAGAAGGCGCGGGAAAGUA [JR_SS2_Sub079] (puzzle: Same State 2)	0.171 µM	0.194 µM	0.277 µM			
UAGCGCUGUCGAGAGGAUAUGCGGUGAUGGACAUGAGGAUCACCCAUGUUAGCGAUAGCAUUACGGUAGAAGGCUCUACAGCUGC [salish99_ss2_r3_092] (puzzle: Same State 2)		0.0232 µM				
UAGCUCGUGUGAGGAUAUGCCGCCGUUUCGGCUGCAGAAGGUGCUACGUUACAUGAGGAUCACCCAUGUCUCUGUUGUUUCGUG [salish99_SSNG1_r04_957] (Eterna round: R96, puzzle: Same State NG 1)				0.0189 µM	0.0196 µM	0.0218 µM
UAGGCUGGUACAGGAUAUGCCGUAUUUUAGUCGGCAGAAGGGUGCUCACAUGAGGAUCACCCAUGUAUACAGCCAGAUCAUGUU [MOD JMF Solution 2] (Eterna round: R96, puzzle: Same State NG 1)				0.132 µM	0.107 µM	0.0432 µM
UAGUACAUGCUUUUUGCCCGUCUUAGAUAACAUGAGGAUCACCCAUGUAAGGUGAAAGUUAUAUAGUGGAGGAAGAU [JR_SHM208A_Sub055] (puzzle: Sensor for hsa-mir-208a)	0.107 µM	0.36 µM	0.107 µM			
UAGUGCAUUAGAGGAUAUUCUUACGACACGAGUAAGACAUGAGGAUCUCCCAUGUUGUGGCAUGGGAAGAAGGCUGAUGUGCUA [Omei SS(NG)2 Bv8] (Eterna round: R96, puzzle: Same State NG 2)				0.0525 µM	0.00684 µM	0.155 µM
UAGUUACUAUCUCAGGAUAUCAUGUCAAAGACAUGAGGAUCACCCAUGUACCAGGAAACUGGUUAUGAGAAGGGAGAUAGUAACU [Mat - Same State 2 - Mod - D55] (puzzle: Same State 2)	0.134 µM	0.104 µM	1.07 µM			
UAGUUUUAGCGAGGAUAUCGUAUGUUUAAUUUUUUAUAUUGUUUACAUGAGGAUCACCCAUGUUACGAGAAGGCGCAUGGGAUU [JR_SSNG2_Sub080] (Eterna round: R96, puzzle: Same State NG 2)					0.273 µM	
UAUGAACAUGAGGAUCACCCAUGUGGUACGAUCACAGGAUAUCACCUCGGACGUGCGAUGUGAGAAGGGUGAUGGU [Same State 1 - Mod of Vinnie Anrelari v.1] (puzzle: Same State 1)		0.0631 µM				
UAUUUAAUCGUAGGAUAUAGAAUGAAAUUUGUACUAGAAGGACGUUACAUGAGGAUCACCCAUGUGGUAAGUGGGACAUAGAUU [JR_SSNG1_Sub035] (Eterna round: R96, puzzle: Same State NG 1)				0.235 µM	0.105 µM	0.121 µM
